Laboratory results reported in PMC2542469 (The Journal of Cell Biology, 2008).

Target: T1, Full-length human histidine-tagged Ndel1 phosphorylated in vitro by both cdk5/p25 and cdk1/cyclin B (human, UniProt Q9GZM8 1-345)
T1 sequence: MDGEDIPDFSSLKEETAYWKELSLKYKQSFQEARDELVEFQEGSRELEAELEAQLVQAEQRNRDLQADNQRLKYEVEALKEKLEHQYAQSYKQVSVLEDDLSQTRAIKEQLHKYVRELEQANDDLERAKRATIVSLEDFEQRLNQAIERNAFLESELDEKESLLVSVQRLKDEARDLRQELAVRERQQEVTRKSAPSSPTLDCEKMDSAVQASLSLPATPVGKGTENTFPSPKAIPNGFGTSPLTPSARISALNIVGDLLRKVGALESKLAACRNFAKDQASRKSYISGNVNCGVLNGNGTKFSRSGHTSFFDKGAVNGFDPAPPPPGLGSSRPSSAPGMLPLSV
Assay: co-IP

B1: Full-length Lis1, histidine tag cleaved (natural protein)
chain: MVLSQRQRDELNRAIADYLRSNGYEEAYSVFKKEAELDVNEELDKKYAGLLEKKWTSVIRLQKKVMELESKLNEAKEEFTSGGPLGQKRDPKEWIPRPPEKYALSGHRSPVTRVIFHPVFSVMVSASEDATIKVWDYETGDFERTLKGHTDSVQDISFDHSGKLLASCSADMTIKLWDFQGFECIRTMHGHDHNVSSVAIMPNGDHIVSASRDKTIKMWEVQTGYCVKTFTGHREWVRMVRPNQDGTLIASCSNDQTVRVWVVATKECKAELREHEHVVECISWAPESSYSSISEATGSETKKSGKPGPFLLSGSRDKTIKMWDVSTGMCLMTLVGHDNWVRGVLFHSGGKFILSCADDKTLRVWDYKNKRCMKTLNAHEHFVTSLDFHKTAPYVVTGSVDQTVKVWECR
  fold more Lis1 pulled down than by unphosphorylated Ndel1: ~5 fold
